# Publication PMC12207370, “Macrocyclic Peptide Probes for Immunomodulatory Protein CD59: Potent Modulators of Bacterial Toxin Activity and Antibody‐Dependent Cytotoxicity” (Angewandte Chemie (International Ed. in English), 2025)
# Biological target: T1, biotinylated CD59 (Homo sapiens, UniProt P13987)
# T1 construct: Recombinant soluble human CD59 with an additional C-terminal cysteine residue
# T1 sequence (P13987 26-102 limits assumed): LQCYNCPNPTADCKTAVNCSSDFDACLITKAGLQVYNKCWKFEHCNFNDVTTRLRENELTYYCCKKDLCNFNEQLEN
# Assay: mRNA-display cyclic peptide screen against CD59-biotin, NGS abundance after 6th selection round
# Details: for Percentage Seq I: counts normalised by total counts of sample Seq I; for Percentage Seq I / Percentage Seq II: percentage of the pool; for Percentage Seq I / Percentage Seq II / Percentage Average / Percentage of the pool, averaged across the two sequencing samples / Percentage of the pool, Seq I / Percentage of the pool, Seq II: sheet R6; for Percentage Seq II: counts normalised by total counts of sample Seq II; for Percentage Average: percentage of the pool averaged across the two sequencing samples; for Counts Seq I / Counts Seq II: raw NGS counts of peptide sequence; for Counts Seq I: sequencing sample Seq I; for Counts Seq I / Counts Seq II / Counts (raw counts for peptide sequence), Seq I / Counts (raw counts for peptide sequence), Seq II: sheet R6 (6th selection round); for Counts Seq II: sequencing sample Seq II; for Counts (raw counts for peptide sequence), Seq I: NGS sample Seq I; for Counts (raw counts for peptide sequence), Seq II: NGS sample Seq II; for Percentage of the pool, averaged across the two sequencing samples: average of Seq I and Seq II; for Percentage of the pool, Seq I: counts normalised by total counts of NGS sample Seq I; for Percentage of the pool, Seq II: counts normalised by total counts of NGS sample Seq II
# Source text: To discover novel non‐protein CD59 ligands, we screened a library of 10^12 cyclic peptides against CD59 using mRNA‐display (Figure 2a).^[ [23], [24], [25], [26], [27], [28], [29] ^] Briefly, an mRNA library was designed in which the start codon was reprogrammed from Met to N‐chloroacetyl‐D‐Tyr (ClAc‐D‐Tyr), followed by 10–12 randomly encoded natural amino acids, a Cys residue, a (GlySer)3 linker, and a stop codon. […] The total library diversity was 1.51 × 10^13 molecules, comprising 5.02 × 10^12 molecules of each macrocycle size, covering a subset of the maximum theoretical diversity of this library design. Following in vitro translation, ClAc‐D‐Tyr spontaneously reacts with either the C‐terminal Cys or a Cys in the random region, yielding macrocyclic thioether peptides. Hits from the library were identified through iterative enrichment and amplification against biotinylated CD59, then immobilized on streptavidin beads. Fifteen hit sequences (CP‐01 to CP‐15), enriched with abundance >1% relative to the total pool of recovered binders after the 6th round of selection, were synthesized by solid phase peptide synthesis (SPPS), without the (Gly‐Ser)3 linker.
# Figure 2 Discovery of macrocyclic peptide ligands with nanomolar CD59 affinity using mRNA display. a) The selection process. PCR = polymerase chain reaction, SPPS = solid phase peptide synthesis. b) Table showing details of the peptides with nanomolar affinity for CD59 as well as the binding affinity of the lead inhibitor of CD59, rILYd4. K D values are presented as the average of three technical replicates ± SEM. Structures of all peptides and SPR sensograms are presented in Figures S1 and S2. *indicates the presented sequences are the variable regions of these cyclic peptides; each is flanked by an N‐terminal Ac‐D‐Tyr cyclized to a C‐terminal Cys. R6 abundance (%) is defined as (the given number of NGS reads for a given sequence/the total number of reads of unique sequences observed in NGS)*100 following the 6th selection round. c) Representative sensogram of the interaction between CP‐06 with immobilized CD59 by SPR analysis. Inset showing the equilibrium binding curve of CP‐06 to CD‐59. Below in the box are the association and dissociation rate constants of CP‐06. Concentrations are plotted in descending order from 800‐3.1 nM in line with their position on the legend. […] (nM)'; the box with Kon/Koff has no label of its own / ILYd4: the label may be cut off at the left edge (possibly 'rILYd4') / CP-02, KD: 15.3 ± 0.2, small print, 3 or 8 uncertain / CP-03, KD: 23.4 ± 0.7, small print / CP-06, KD: 11.3 ± 0.0, small print, 3 or 8 uncertain / CP-13, KD: 10.8 ± 0.7, small print, 8 or 6 uncertain / ILYd4, KD: 48.3 ± 1.1, small print, 8 and 3 uncertain
# The mRNA-display cyclic peptide screen was performed against CD59-biotin by T.E.M: DNA templates for transcription were generated by PCR in a similar manner to that previously described.^2 RNA oligonucleotides were transcribed from the DNA templates using T7 RNA polymerase and purified by phenol/chloroform extraction followed by ethanol precipitation. Oligonucleotide concentrations were determined spectroscopically by absorbance at 260 nm. In the first selection round a 1:1:1 molar ratio of NNK10/NNK11/NNK12 was used. The procedure for selection rounds 2-6 is described below; round 1 was conducted at twice the scale.
# RNA encoding for the peptide library ligated to a puromycin-modified oligonucleotide was […] (final [RNA] = 2.5 µM) using a customised PURE express kit (lacking release factor 1 and methionine, supplemented with […] initiator tRNA acylated with N-chloroacetyl-d-tyrosine prepared as previously described)^3 in a final volume of 5.6 µL for 1 hour at 37 °C.
# This mixture was incubated at 42 °C for 1 hour before being diluted to 500 µL with PBS (10 mM Na-PO4 pH 7.4, 2.7 mM KCl, 137 mM NaCl) and 0.5 µL taken for subsequent use in qPCR. […]
sequence,measurement,value
CFALRLSQTSV,Percentage Seq I,0.018%
same,Percentage Seq II,0.042%
same,Percentage Average,0.030%
same,Counts Seq I,78
same,Counts Seq II,18
CFANRLYGSDSH,Percentage Seq I,0.031%
same,Percentage Seq II,0.035%
same,Percentage Average,0.033%
same,Counts Seq I,135
same,Counts Seq II,15
CFANRLYGSDSR,Percentage Seq I,0.040%
same,Percentage Seq II,0.039%
same,Percentage Average,0.040%
same,Counts Seq I,177
same,Counts Seq II,17
CFARRLSASFGT,Percentage Seq I,1.002%
same,Percentage Seq II,0.935%
same,Percentage Average,0.969%
same,Counts Seq I,4384
same,Counts Seq II,403
CFARRLSASLGT,Percentage Seq I,0.033%
same,Percentage Seq II,0.021%
same,Percentage Average,0.027%
same,Counts Seq I,145
same,Counts Seq II,9
CFARRLSASSGT,Percentage Seq I,0.024%
same,Percentage Seq II,0.028%
same,Percentage Average,0.026%
same,Counts Seq I,106
same,Counts Seq II,12
CFARRLSSSHSL,Percentage Seq I,0.161%
same,Percentage Seq II,0.155%
same,Percentage Average,0.158%
same,Counts Seq I,705
same,Counts Seq II,67
CFARRVNNSSL,Percentage Seq I,0.031%
same,Percentage Seq II,0.028%
same,Percentage Average,0.030%
same,Counts Seq I,137
same,Counts Seq II,12
CFASRLTIDAV,Percentage Seq I,0.032%
same,Percentage Seq II,0.028%
same,Percentage Average,0.030%
same,Counts Seq I,140
same,Counts Seq II,12
CFASRTLLNTSV,Percentage Seq I,0.102%
same,Percentage Seq II,0.104%
same,Percentage Average,0.103%
same,Counts Seq I,446
same,Counts Seq II,45
CFAYRTHTTAV,"Counts (raw counts for peptide sequence), Seq I",63
same,"Counts (raw counts for peptide sequence), Seq II",6
same,"Percentage of the pool, averaged across the two sequencing samples",0.014%
same,"Percentage of the pool, Seq I",0.014%
same,"Percentage of the pool, Seq II",0.014%
CFGGRTFIYAWS,"Counts (raw counts for peptide sequence), Seq I",34
same,"Counts (raw counts for peptide sequence), Seq II",5
same,"Percentage of the pool, averaged across the two sequencing samples",0.010%
same,"Percentage of the pool, Seq I",0.008%
same,"Percentage of the pool, Seq II",0.012%
CFGRRADPDGI,Percentage Seq I,0.040%
same,Percentage Seq II,0.030%
same,Percentage Average,0.035%
same,Counts Seq I,174
same,Counts Seq II,13
CFIRRSIESGTA,"Counts (raw counts for peptide sequence), Seq I",56
same,"Counts (raw counts for peptide sequence), Seq II",10
same,"Percentage of the pool, averaged across the two sequencing samples",0.018%
same,"Percentage of the pool, Seq I",0.013%
same,"Percentage of the pool, Seq II",0.023%
CFKHRLGTDSA,Percentage Seq I,0.097%
same,Percentage Seq II,0.086%
same,Percentage Average,0.091%
same,Counts Seq I,423
same,Counts Seq II,37
CFKKRLDTVST,Percentage Seq I,0.021%
same,Percentage Seq II,0.016%
same,Percentage Average,0.019%
same,Counts Seq I,91
same,Counts Seq II,7
CFLKRDRSASI,"Counts (raw counts for peptide sequence), Seq I",56
same,"Counts (raw counts for peptide sequence), Seq II",7
same,"Percentage of the pool, averaged across the two sequencing samples",0.015%
same,"Percentage of the pool, Seq I",0.013%
same,"Percentage of the pool, Seq II",0.016%
CFLNRASFSGI,"Counts (raw counts for peptide sequence), Seq I",60
same,"Counts (raw counts for peptide sequence), Seq II",6
same,"Percentage of the pool, averaged across the two sequencing samples",0.014%
same,"Percentage of the pool, Seq I",0.014%
same,"Percentage of the pool, Seq II",0.014%
CFLTRASQLSGT,"Counts (raw counts for peptide sequence), Seq I",44
same,"Counts (raw counts for peptide sequence), Seq II",4
same,"Percentage of the pool, averaged across the two sequencing samples",0.010%
same,"Percentage of the pool, Seq I",0.010%
same,"Percentage of the pool, Seq II",0.009%
CFLYRNNPDSV,Percentage Seq I,0.069%
same,Percentage Seq II,0.067%
same,Percentage Average,0.068%
same,Counts Seq I,303
same,Counts Seq II,29
CFNSRLHIGAV,Percentage Seq I,0.041%
same,Percentage Seq II,0.058%
same,Percentage Average,0.050%
same,Counts Seq I,181
same,Counts Seq II,25
CFQNRMAYGDI,"Counts (raw counts for peptide sequence), Seq I",34
same,"Counts (raw counts for peptide sequence), Seq II",7
same,"Percentage of the pool, averaged across the two sequencing samples",0.012%
same,"Percentage of the pool, Seq I",0.008%
same,"Percentage of the pool, Seq II",0.016%
CFQNRVSGSGAL,Percentage Seq I,0.119%
same,Percentage Seq II,0.116%
same,Percentage Average,0.118%
same,Counts Seq I,522
same,Counts Seq II,50
CFQNRVTSDSAK,Percentage Seq I,0.160%
same,Percentage Seq II,0.142%
same,Percentage Average,0.151%
same,Counts Seq I,702
same,Counts Seq II,61
CFQRRTLGPDAI,Percentage Seq I,0.094%
same,Percentage Seq II,0.088%
same,Percentage Average,0.091%
same,Counts Seq I,412
same,Counts Seq II,38
CFRFRLNATSS,Percentage Seq I,0.075%
same,Percentage Seq II,0.060%
same,Percentage Average,0.068%
same,Counts Seq I,329
same,Counts Seq II,26
CFRNRIDLIS,"Counts (raw counts for peptide sequence), Seq I",49
same,"Counts (raw counts for peptide sequence), Seq II",5
same,"Percentage of the pool, averaged across the two sequencing samples",0.011%
same,"Percentage of the pool, Seq I",0.011%
same,"Percentage of the pool, Seq II",0.012%
CFRNRVLEITST,Percentage Seq I,0.042%
same,Percentage Seq II,0.032%
same,Percentage Average,0.037%
same,Counts Seq I,183
same,Counts Seq II,14
CFRSRAVSNGT,"Counts (raw counts for peptide sequence), Seq I",57
same,"Counts (raw counts for peptide sequence), Seq II",8
same,"Percentage of the pool, averaged across the two sequencing samples",0.016%
same,"Percentage of the pool, Seq I",0.013%
same,"Percentage of the pool, Seq II",0.019%
CFRYRLGLTST,Percentage Seq I,0.062%
same,Percentage Seq II,0.058%
same,Percentage Average,0.060%
same,Counts Seq I,271
same,Counts Seq II,25
CFRYRVTPTSY,Percentage Seq I,0.023%
same,Percentage Seq II,0.014%
same,Percentage Average,0.018%
same,Counts Seq I,100
same,Counts Seq II,6
CFSARAIHGSL,"Counts (raw counts for peptide sequence), Seq I",38
same,"Counts (raw counts for peptide sequence), Seq II",6
same,"Percentage of the pool, averaged across the two sequencing samples",0.011%
same,"Percentage of the pool, Seq I",0.009%
same,"Percentage of the pool, Seq II",0.014%
CFSARAILDGGW,Percentage Seq I,0.249%
same,Percentage Seq II,0.248%
same,Percentage Average,0.249%
same,Counts Seq I,1089
same,Counts Seq II,107
CFSARATLDGGW,Percentage Seq I,0.036%
same,Percentage Seq II,0.030%
same,Percentage Average,0.033%
same,Counts Seq I,157
same,Counts Seq II,13
